Drawing on PMC6382702, this text covers binding for one sequence.

The test system of the series is T1, CagR (Streptomyces clavuligerus F613-1), ORF:155d736f.
T1 sequence: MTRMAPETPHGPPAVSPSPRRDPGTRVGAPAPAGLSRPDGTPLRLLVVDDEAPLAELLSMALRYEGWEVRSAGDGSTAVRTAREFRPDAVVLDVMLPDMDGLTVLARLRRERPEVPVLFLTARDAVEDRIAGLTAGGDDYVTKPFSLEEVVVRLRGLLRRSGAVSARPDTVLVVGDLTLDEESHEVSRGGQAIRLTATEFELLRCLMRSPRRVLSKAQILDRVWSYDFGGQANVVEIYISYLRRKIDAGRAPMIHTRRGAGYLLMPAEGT
The series is described as follows: EMSA. The following applies: EMSA with 3.0 ug His-CagR and polydI/dC (1.0 mg as printed); buffer, pH and temperature not given (as in Zhang et al., 2015). (In general: A gel shift assay detects complexes by their altered migration in electrophoresis.)

Consider “CGACGCGCTCGGTCACAGGAATCTCCTTACGATGCATGCGGTGATGGAATAAGTATGCACTCGCCCGCATGTTTCGTCAATCATGGGTGCGCGATCGGTGCGTCCGACCGAAAGTGATCGGACGCTTACGCCATGGAGCGGCGCGCTGAACGCGTCGACGGAGGAATCCCCGGGGCCGTCGGACAGCGGCAGGGGTCTTCCGCACGGCGGCGGCCCGCCGCGGCATGCCGCAGGCCCCCGGCCGAGAGGGCCGGGGGCCTGCGGGGGTGGCGGCGCCGCGCCGGAGGGCCGGTCAGGCC (double strand) [argG upstream region (P2)]”, for which the binding result is given as “binds”.
